# Measurements published in patent US20260209386A1 (MYTHIC THERAPEUTICS, published 2026).
# T1: Human PTK7/CCK4 Protein, His Tag, Acro Biosystems PT7-H52H3 (human, UniProt Q13308 31-704)
# T1 construct: bought protein; also called Human PTK7 Protein, His Tag, Acro Biosystems; not shown: His tag
# T1 sequence: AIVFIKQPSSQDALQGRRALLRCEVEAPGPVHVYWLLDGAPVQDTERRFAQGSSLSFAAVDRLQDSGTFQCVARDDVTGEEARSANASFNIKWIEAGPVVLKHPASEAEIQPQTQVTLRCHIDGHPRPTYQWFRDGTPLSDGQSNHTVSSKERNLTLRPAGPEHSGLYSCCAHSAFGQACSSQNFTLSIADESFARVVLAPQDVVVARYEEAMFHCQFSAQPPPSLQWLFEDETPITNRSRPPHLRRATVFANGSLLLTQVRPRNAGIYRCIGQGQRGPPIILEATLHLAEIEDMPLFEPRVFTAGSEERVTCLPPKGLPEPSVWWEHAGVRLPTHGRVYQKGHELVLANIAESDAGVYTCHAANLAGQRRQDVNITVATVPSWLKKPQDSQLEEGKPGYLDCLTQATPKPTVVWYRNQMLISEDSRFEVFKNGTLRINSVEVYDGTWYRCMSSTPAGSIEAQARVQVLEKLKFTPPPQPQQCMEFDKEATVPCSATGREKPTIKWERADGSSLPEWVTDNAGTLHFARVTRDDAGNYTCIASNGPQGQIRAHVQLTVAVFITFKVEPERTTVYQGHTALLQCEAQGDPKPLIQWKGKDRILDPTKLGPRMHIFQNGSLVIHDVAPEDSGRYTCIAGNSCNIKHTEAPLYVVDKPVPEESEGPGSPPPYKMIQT
# Target: T1, Human PTK7/CCK4 Protein, His Tag, Acro …
# Assay: BLI, antibody on anti-human Fc sensor, 50 nM PTK7
row,Binder,binding result
1,"MYT10888 (antibody, V domains shown, IgG) VH: EVQLVESGGGLVQPGGSLRLSCTASGFSHSNYVMNWVRQAPGKGLEWVGIIDSSGSTYYASWAKGRFTISRDTSKNTVYLQMNSLRAEDTAVYFCARGLYLWGQGTLVTVSS VL: EIVMTQSPSTLSASVGDRVIITCQSSQSVYNNNLLAWYQQKPGKAPKLLIYYTSNLASGVPSRFSGSGSGAEFTLTISSLQPDDFATYYCQGGYNGNIYAFGQGTKLTVL",binds
2,"MYT10916 (antibody, V domains shown, IgG) VH: EVQLVESGGGLVQPGGSLRLSCTASGFSLSNYVMNWVRQAPGKGLEWVGIIDSSGSTYYASWAKGRFTISRDTSKNTVYLQMNSLRAEDTAVYFCARGLYHWGQGTLVTVSS VL: EIVMTQSPSTLSASVGDRVIITCQSSQSVYNNNLLAWYQQKPGKAPKLLIYYTSNLASGVPSRFSGSGSGAEFTLTISSLQPDDFATYYCQGGYNGNIYAFGQGTKLTVL",binds
3,"MYT10895 (antibody, V domains shown, IgG) VH: EVQLVESGGGLVQPGGSLRLSCTASGFSLSNYVMNWVRQAPGKGLEWVGHIDSSGSTYYASWAKGRFTISRDTSKNTVYLQMNSLRAEDTAVYFCARGLYLWGQGTLVTVSS VL: EIVMTQSPSTLSASVGDRVIITCQSSQSVYNNNLLAWYQQKPGKAPKLLIYYTSNLASGVPSRFSGSGSGAEFTLTISSLQPDDFATYYCQGGYNGNIYAFGQGTKLTVL",binds
4,"MYT10926 (antibody, V domains shown, IgG) VH: EVQLVESGGGLVQPGGSLRLSCTASGFSLSNYVMNWVRQAPGKGLEWVGIIDSSGSTYYASWAKGRFTISRDTSKNTVYLQMNSLRAEDTAVYFCARGLYLWGQGTLVTVSS VL: EIVMTQSPSTLSASVGDRVIITCQSSQSVYHNNLLAWYQQKPGKAPKLLIYYTSNLASGVPSRFSGSGSGAEFTLTISSLQPDDFATYYCQGGYNGNIYAFGQGTKLTVL",binds
5,"MYT10937 (antibody, V domains shown, IgG) VH: EVQLVESGGGLVQPGGSLRLSCTASGFSLSNYVMNWVRQAPGKGLEWVGIIDSSGSTYYASWAKGRFTISRDTSKNTVYLQMNSLRAEDTAVYFCARGLYLWGQGTLVTVSS VL: EIVMTQSPSTLSASVGDRVIITCQSSQSVYNNNLLAWYQQKPGKAPKLLIYYTSNLHSGVPSRFSGSGSGAEFTLTISSLQPDDFATYYCQGGYNGNIYAFGQGTKLTVL",binds
6,"MYT10891 (antibody, V domains shown, IgG) VH: EVQLVESGGGLVQPGGSLRLSCTASGFSLSNHVMNWVRQAPGKGLEWVGIIDSSGSTYYASWAKGRFTISRDTSKNTVYLQMNSLRAEDTAVYFCARGLYLWGQGTLVTVSS VL: EIVMTQSPSTLSASVGDRVIITCQSSQSVYNNNLLAWYQQKPGKAPKLLIYYTSNLASGVPSRFSGSGSGAEFTLTISSLQPDDFATYYCQGGYNGNIYAFGQGTKLTVL",binds
7,"MYT10903 (antibody, V domains shown, IgG) VH: EVQLVESGGGLVQPGGSLRLSCTASGFSLSNYVMNWVRQAPGKGLEWVGIIDSSGSTHYASWAKGRFTISRDTSKNTVYLQMNSLRAEDTAVYFCARGLYLWGQGTLVTVSS VL: EIVMTQSPSTLSASVGDRVIITCQSSQSVYNNNLLAWYQQKPGKAPKLLIYYTSNLASGVPSRFSGSGSGAEFTLTISSLQPDDFATYYCQGGYNGNIYAFGQGTKLTVL",binds
8,"MYT10927 (antibody, V domains shown, IgG) VH: EVQLVESGGGLVQPGGSLRLSCTASGFSLSNYVMNWVRQAPGKGLEWVGIIDSSGSTYYASWAKGRFTISRDTSKNTVYLQMNSLRAEDTAVYFCARGLYLWGQGTLVTVSS VL: EIVMTQSPSTLSASVGDRVIITCQSSQSVYNHNLLAWYQQKPGKAPKLLIYYTSNLASGVPSRFSGSGSGAEFTLTISSLQPDDFATYYCQGGYNGNIYAFGQGTKLTVL",binds
9,"MYT10897 (antibody, V domains shown, IgG) VH: EVQLVESGGGLVQPGGSLRLSCTASGFSLSNYVMNWVRQAPGKGLEWVGIIHSSGSTYYASWAKGRFTISRDTSKNTVYLQMNSLRAEDTAVYFCARGLYLWGQGTLVTVSS VL: EIVMTQSPSTLSASVGDRVIITCQSSQSVYNNNLLAWYQQKPGKAPKLLIYYTSNLASGVPSRFSGSGSGAEFTLTISSLQPDDFATYYCQGGYNGNIYAFGQGTKLTVL",binds

# More lines, now with the values ahead:
row,binding result,Binder
1,binds,"MYT10925 (antibody, V domains shown, IgG) VH: EVQLVESGGGLVQPGGSLRLSCTASGFSLSNYVMNWVRQAPGKGLEWVGIIDSSGSTYYASWAKGRFTISRDTSKNTVYLQMNSLRAEDTAVYFCARGLYLWGQGTLVTVSS VL: EIVMTQSPSTLSASVGDRVIITCQSSQSVHNNNLLAWYQQKPGKAPKLLIYYTSNLASGVPSRFSGSGSGAEFTLTISSLQPDDFATYYCQGGYNGNIYAFGQGTKLTVL"
2,binds,"MYT10889 (antibody, V domains shown, IgG) VH: EVQLVESGGGLVQPGGSLRLSCTASGFSLHNYVMNWVRQAPGKGLEWVGIIDSSGSTYYASWAKGRFTISRDTSKNTVYLQMNSLRAEDTAVYFCARGLYLWGQGTLVTVSS VL: EIVMTQSPSTLSASVGDRVIITCQSSQSVYNNNLLAWYQQKPGKAPKLLIYYTSNLASGVPSRFSGSGSGAEFTLTISSLQPDDFATYYCQGGYNGNIYAFGQGTKLTVL"
3,binds,"MYT10930 (antibody, V domains shown, IgG) VH: EVQLVESGGGLVQPGGSLRLSCTASGFSLSNYVMNWVRQAPGKGLEWVGIIDSSGSTYYASWAKGRFTISRDTSKNTVYLQMNSLRAEDTAVYFCARGLYLWGQGTLVTVSS VL: EIVMTQSPSTLSASVGDRVIITCQSSQSVYNNNLHAWYQQKPGKAPKLLIYYTSNLASGVPSRFSGSGSGAEFTLTISSLQPDDFATYYCQGGYNGNIYAFGQGTKLTVL"
4,binds,"MYT10935 (antibody, V domains shown, IgG) VH: EVQLVESGGGLVQPGGSLRLSCTASGFSLSNYVMNWVRQAPGKGLEWVGIIDSSGSTYYASWAKGRFTISRDTSKNTVYLQMNSLRAEDTAVYFCARGLYLWGQGTLVTVSS VL: EIVMTQSPSTLSASVGDRVIITCQSSQSVYNNNLLAWYQQKPGKAPKLLIYYTSHLASGVPSRFSGSGSGAEFTLTISSLQPDDFATYYCQGGYNGNIYAFGQGTKLTVL"
5,binds,"MYT10928 (antibody, V domains shown, IgG) VH: EVQLVESGGGLVQPGGSLRLSCTASGFSLSNYVMNWVRQAPGKGLEWVGIIDSSGSTYYASWAKGRFTISRDTSKNTVYLQMNSLRAEDTAVYFCARGLYLWGQGTLVTVSS VL: EIVMTQSPSTLSASVGDRVIITCQSSQSVYNNHLLAWYQQKPGKAPKLLIYYTSNLASGVPSRFSGSGSGAEFTLTISSLQPDDFATYYCQGGYNGNIYAFGQGTKLTVL"
6,binds,"MYT10905 (antibody, V domains shown, IgG) VH: EVQLVESGGGLVQPGGSLRLSCTASGFSLSNYVMNWVRQAPGKGLEWVGIIDSSGSTYYHSWAKGRFTISRDTSKNTVYLQMNSLRAEDTAVYFCARGLYLWGQGTLVTVSS VL: EIVMTQSPSTLSASVGDRVIITCQSSQSVYNNNLLAWYQQKPGKAPKLLIYYTSNLASGVPSRFSGSGSGAEFTLTISSLQPDDFATYYCQGGYNGNIYAFGQGTKLTVL"
7,binds,"MYT10896 (antibody, V domains shown, IgG) VH: EVQLVESGGGLVQPGGSLRLSCTASGFSLSNYVMNWVRQAPGKGLEWVGIHDSSGSTYYASWAKGRFTISRDTSKNTVYLQMNSLRAEDTAVYFCARGLYLWGQGTLVTVSS VL: EIVMTQSPSTLSASVGDRVIITCQSSQSVYNNNLLAWYQQKPGKAPKLLIYYTSNLASGVPSRFSGSGSGAEFTLTISSLQPDDFATYYCQGGYNGNIYAFGQGTKLTVL"
8,binds,"MYT10898 (antibody, V domains shown, IgG) VH: EVQLVESGGGLVQPGGSLRLSCTASGFSLSNYVMNWVRQAPGKGLEWVGIIDHSGSTYYASWAKGRFTISRDTSKNTVYLQMNSLRAEDTAVYFCARGLYLWGQGTLVTVSS VL: EIVMTQSPSTLSASVGDRVIITCQSSQSVYNNNLLAWYQQKPGKAPKLLIYYTSNLASGVPSRFSGSGSGAEFTLTISSLQPDDFATYYCQGGYNGNIYAFGQGTKLTVL"
9,binds,"MYT10911 (antibody, V domains shown, IgG) VH: EVQLVESGGGLVQPGGSLRLSCTASGFSLSNYVMNWVRQAPGKGLEWVGIIDSSGSTYYASWAKGRFTISRDTSKNTVYLQMNSLRAEDTAVYFCHRGLYLWGQGTLVTVSS VL: EIVMTQSPSTLSASVGDRVIITCQSSQSVYNNNLLAWYQQKPGKAPKLLIYYTSNLASGVPSRFSGSGSGAEFTLTISSLQPDDFATYYCQGGYNGNIYAFGQGTKLTVL"
10,binds,"MYT10936 (antibody, V domains shown, IgG) VH: EVQLVESGGGLVQPGGSLRLSCTASGFSLSNYVMNWVRQAPGKGLEWVGIIDSSGSTYYASWAKGRFTISRDTSKNTVYLQMNSLRAEDTAVYFCARGLYLWGQGTLVTVSS VL: EIVMTQSPSTLSASVGDRVIITCQSSQSVYNNNLLAWYQQKPGKAPKLLIYYTSNHASGVPSRFSGSGSGAEFTLTISSLQPDDFATYYCQGGYNGNIYAFGQGTKLTVL"
11,binds,"MYT10920 (antibody, V domains shown, IgG) VH: EVQLVESGGGLVQPGGSLRLSCTASGFSLSNYVMNWVRQAPGKGLEWVGIIDSSGSTYYASWAKGRFTISRDTSKNTVYLQMNSLRAEDTAVYFCARGLYLWGQGTLVTVSS VL: EIVMTQSPSTLSASVGDRVIITCQHSQSVYNNNLLAWYQQKPGKAPKLLIYYTSNLASGVPSRFSGSGSGAEFTLTISSLQPDDFATYYCQGGYNGNIYAFGQGTKLTVL"
